# Measurements: the supplement of paper PMC7877785
# ± gives the uncertainty stated by the source.
# Assay: self-splicing fitness, log relative to wild type (ln ratio); higher = more splicing; Tetrahymena group I intron in knt gene, E. coli kanamycin selection, DiMSum; sequences stand for … in CUCUCU…GGAGGGAAAAGUUAUCAGGCAUGCACCUGGUAGCUAGUCUUUAAACCAAUAGAUUGCAUCGGUUUAAAAGGCAAGACCGUCAAAUUGCGGGAAAGGGGUCAACAGCCGUUCAGUACCAAGUCUCAGGGGAAACUUUGAGAUGGCCUUGCAAAGGGUAUGGUAAUAAGCUGACGGACAUGGUCCUAACCACGCAGCCAAGUCCUAAGUCAACAGAUCUUCUGUUGAUAUGGAUGCAGUUCACAGACUAAAUGUCGGUCGGGGAAGAUGUAUUCUUCUCAUAAGAUAUAGUCGGACCUCUCCUUAAUGGGAGCUAGCGGAUGAAGUGAUGCAACACUGGAGCCGCUGGGAACUAAUUUGUAUGCGAAAGUAUAUUGAUUAGUUUUGGAGUACUCGUGGUCG
# Procedure, shortened: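 Fitness was computed with DiMSum as the error-weighted combination of replicate fold changes, kanamycin versus none, each normalised to wild type. The library randomised all eight intron nucleotides of the P1ex region, with the intron placed in the knt kanamycin-resistance gene on pET-22b(+) in E. coli BL21(DE3). Six replicate transformations were grown overnight at 37°C or 30°C on LB agar with or without 25 μg/mL kanamycin, plus 100 μg/mL carbenicillin, 50 μM IPTG and 0.2% rhamnose. Pooled colonies were amplicon-sequenced on an Illumina HiSeq 2500.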
Sequence,self-splicing fitness (ln) (30 °C),self-splicing fitness (ln) (37 °C)
UAACAGCAAUAUUACGCUAA,-1.93 ± 0.13,-1.25 ± 0.12
UAACAGCAAUAUUACGCUGU,-3.79 ± 0.16,-2.62 ± 0.19
UAACAGCAAUAUUACGGCAC,-2.47 ± 0.13,-1.63 ± 0.14
UAACAGCAAUAUUACGGUAA,-2.07 ± 0.095,-1.22 ± 0.081
UAACAGCAAUAUUACGUAAA,-2.6 ± 0.089,-0.884 ± 0.084
UAACAGCAAUAUUACGUAUC,-3.56 ± 0.19,-2.43 ± 0.15
UAACAGCAAUAUUACGUAUG,-1.52 ± 0.058,-0.164 ± 0.075
UAACAGCAAUAUUACGUCCU,-0.956 ± 0.085,-0.192 ± 0.1
UAACAGCAAUAUUACGUCUA,-0.13 ± 0.049,0.144 ± 0.06
UAACAGCAAUAUUACGUCUU,-1.12 ± 0.052,-0.0714 ± 0.06
UAACAGCAAUAUUACGUGUA,-1.6 ± 0.056,-0.0928 ± 0.06
UAACAGCAAUAUUACGUUUG,-2.13 ± 0.079,-0.759 ± 0.081
UAAGAGCAAUAUUACGAACG,–,-2.57 ± 0.41
UAAGAGCAAUAUUACGAAGG,-4.21 ± 0.34,-1.81 ± 0.2
UAAGAGCAAUAUUACGAAUA,-3.27 ± 0.26,-1.32 ± 0.19
UAAGAGCAAUAUUACGACAU,-3.866 ± 0.031,-2.82 ± 0.043
UAAGAGCAAUAUUACGAGGG,-3.64 ± 0.14,-2.53 ± 0.16
UAAGAGCAAUAUUACGAUAU,-3.22 ± 0.24,-2.86 ± 0.28
UAAGAGCAAUAUUACGCAAG,-3.12 ± 0.44,-1.51 ± 0.45
UAAGAGCAAUAUUACGCGCU,-3.17 ± 0.28,-3.35 ± 0.39
UAAGAGCAAUAUUACGCGUA,-1.55 ± 0.29,0.00439 ± 0.15
UAAGAGCAAUAUUACGCUAG,-3.86 ± 0.26,-1.94 ± 0.21
UAAGAGCAAUAUUACGCUAU,-3.95 ± 0.32,-2.64 ± 0.24
UAAGAGCAAUAUUACGGAUU,–,-2.13 ± 0.48
UAAGAGCAAUAUUACGGGAA,-2.21 ± 0.3,-1.77 ± 0.24

Sequence,self-splicing fitness (ln) (30 °C),self-splicing fitness (ln) (37 °C)
UAAGAGCAAUAUUACGGGUA,-2.57 ± 0.2,-1.59 ± 0.17
UAAGAGCAAUAUUACGGUAA,-2.55 ± 0.21,-3.19 ± 0.28
UAAGAGCAAUAUUACGGUUA,-1.12 ± 0.12,-0.602 ± 0.1
UAAGAGCAAUAUUACGUAAC,-5.23 ± 0.45,-1.44 ± 0.18
UAAGAGCAAUAUUACGUCAA,-3.41 ± 0.25,-2.36 ± 0.18
UAAGAGCAAUAUUACGUCUC,-4.3 ± 0.34,-2.31 ± 0.21
UAAGAGCAAUAUUACGUGAA,-1.72 ± 0.17,-1.74 ± 0.29
UAAGAGCAAUAUUACGUGAG,-1.37 ± 0.13,-0.181 ± 0.23
UAAGAGCAAUAUUACGUGGU,-3.74 ± 0.24,-2.57 ± 0.19
UAAGAGCAAUAUUACGUUAC,–,-2.7 ± 0.34
UAAGAGCAAUAUUACGUUUC,-3.76 ± 0.26,-2.51 ± 0.39
UAAGAGCAAUAUUACGUUUG,-2.33 ± 0.096,-1.07 ± 0.12
UAAUAGCAAUAUUACGACUC,-3.23 ± 0.25,-1.03 ± 0.23
UAAUAGCAAUAUUACGACUU,-0.84 ± 0.1,-0.376 ± 0.094
UAAUAGCAAUAUUACGAGCG,-1.02 ± 0.1,-0.261 ± 0.15
UAAUAGCAAUAUUACGAGGG,-3.81 ± 0.39,-1.73 ± 0.23
UAAUAGCAAUAUUACGAGGU,-3.06 ± 0.2,-2.65 ± 0.26
UAAUAGCAAUAUUACGAUAA,-3.33 ± 0.2,-1.78 ± 0.16
UAAUAGCAAUAUUACGAUGC,-3.45 ± 0.3,–
UAAUAGCAAUAUUACGAUGU,-2.78 ± 0.18,-2.48 ± 0.19
UAAUAGCAAUAUUACGCAGA,–,-0.288 ± 0.16
UAAUAGCAAUAUUACGCCGA,-1.01 ± 0.29,-1.51 ± 0.44
UAAUAGCAAUAUUACGCUUU,-3.54 ± 0.44,-1.5 ± 0.2
UAAUAGCAAUAUUACGGCCA,-0.34 ± 0.17,0.175 ± 0.18
